# T1: SmTRα (Schistosoma mansoni, UniProt Q2TUU7 1-1115)
# T1 sequence: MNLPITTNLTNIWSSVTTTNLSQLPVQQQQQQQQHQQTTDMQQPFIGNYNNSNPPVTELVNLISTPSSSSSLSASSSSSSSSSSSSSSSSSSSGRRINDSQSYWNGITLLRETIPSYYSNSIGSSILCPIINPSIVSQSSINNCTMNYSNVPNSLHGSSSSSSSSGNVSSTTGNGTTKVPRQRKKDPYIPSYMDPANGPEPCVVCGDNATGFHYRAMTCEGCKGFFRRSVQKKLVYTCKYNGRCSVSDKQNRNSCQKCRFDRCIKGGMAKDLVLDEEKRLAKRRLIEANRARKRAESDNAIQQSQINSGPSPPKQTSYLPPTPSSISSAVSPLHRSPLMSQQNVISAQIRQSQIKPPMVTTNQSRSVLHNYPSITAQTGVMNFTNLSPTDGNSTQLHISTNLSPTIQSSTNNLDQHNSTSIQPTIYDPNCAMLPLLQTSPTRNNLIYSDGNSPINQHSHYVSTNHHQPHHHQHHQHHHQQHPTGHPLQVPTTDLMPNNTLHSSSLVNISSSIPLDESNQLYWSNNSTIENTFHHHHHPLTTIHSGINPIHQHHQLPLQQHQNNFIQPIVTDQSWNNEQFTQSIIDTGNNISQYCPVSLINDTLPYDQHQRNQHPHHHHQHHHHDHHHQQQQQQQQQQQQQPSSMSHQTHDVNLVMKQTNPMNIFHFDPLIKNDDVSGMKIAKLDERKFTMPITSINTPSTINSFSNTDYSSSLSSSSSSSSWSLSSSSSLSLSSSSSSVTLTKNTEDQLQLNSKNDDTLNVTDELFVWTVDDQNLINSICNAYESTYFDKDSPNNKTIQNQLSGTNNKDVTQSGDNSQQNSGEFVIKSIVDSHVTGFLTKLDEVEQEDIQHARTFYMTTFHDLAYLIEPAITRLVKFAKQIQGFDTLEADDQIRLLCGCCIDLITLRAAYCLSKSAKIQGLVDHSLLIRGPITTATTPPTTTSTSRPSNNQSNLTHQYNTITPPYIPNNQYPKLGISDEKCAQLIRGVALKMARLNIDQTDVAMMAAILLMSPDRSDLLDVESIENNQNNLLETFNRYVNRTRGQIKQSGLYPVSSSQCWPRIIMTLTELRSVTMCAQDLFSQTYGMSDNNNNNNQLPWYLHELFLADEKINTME
# What was measured:
# SmTRα = biological target: T1, SmTRα; assay: EMSA; monomer or homodimer; EMSA on ice 40 min, 15 µl with 3 µl 5x buffer (5x: 20% glycerol, 5 mM MgCl2, 2.5 mM EDTA, 2.5 mM DTT, 250 mM NaCl, 50 mM Tris-HCl pH 7.5, 0.25 mg/ml poly(dI-dC)); 6% native gel, 1x TBE, 4°C; details: protein: ivt; tags: none stated (pCITE-4a); label: 32P; blunt
# SmTRα(Gln182-Ala288) = SmTRα(Gln182-Ala288) (Schistosoma mansoni, UniProt Q2TUU7 182-288); assay: EMSA; monomer or homodimer; cold self competes; EMSA on ice 40 min, 15 µl with 3 µl 5x buffer (5x: 20% glycerol, 5 mM MgCl2, 2.5 mM EDTA, 2.5 mM DTT, 250 mM NaCl, 50 mM Tris-HCl pH 7.5, 0.25 mg/ml poly(dI-dC)); 6% native gel, 1x TBE, 4°C; details: protein: ivt; tags: none stated (pCITE-4a); label: 32P; blunt
Binder,binding result (SmTRα),binding result (SmTRα(Gln182-Ala288))
DR5 (dsDNA) DNA 1: CCGTAAGGTCACCAGGAGGTCACTCG DNA 2: CGAGTGACCTCCTGGTGACCTTACGG,binds,binds
Pal0 (dsDNA) DNA 1: CGCAAGGTCATGACCTCG DNA 2: CGAGGTCATGACCTTGCG,binds,binds
DR1 (dsDNA) DNA 1: CCGTAAGGTCACAGGTCACTCG DNA 2: CGAGTGACCTGTGACCTTACGG,binds,binds
DR3 (dsDNA) DNA 1: CCGTAAGGTCACAGAGGTCACTCG DNA 2: CGAGTGACCTCTGTGACCTTACGG,binds,binds
DR4 (dsDNA) DNA 1: CCGTAAGGTCACAGGAGGTCACTCG DNA 2: CGAGTGACCTCCTGTGACCTTACGG,binds,binds
half-site (dsDNA) DNA 1: GTACCGTAAGGTCACTCGCGT DNA 2: ACGCGAGTGACCTTACGGTAC,binds,binds
DR2 (dsDNA) DNA 1: CCGTAAGGTCACAAGGTCACTCG DNA 2: CGAGTGACCTTGTGACCTTACGG,binds,binds
DR0 (dsDNA) DNA 1: CCGTAAGGTCAAGGTCACTCG DNA 2: CGAGTGACCTTGACCTTACGG,binds,binds

# Source: article PMC2045677, “Thyroid hormone receptor orthologues from invertebrate species with emphasis on Schistosoma mansoni”
